Assays:
ZAG mRNA = assay: ZAG gene expression in mouse tissues by RT-PCR; type: in vivo; details: mice treated with ZAG orally; compared to stomach, small intestine or colon
Experimental: Total RNA was extracted from tissues (50-120 mg) and adipocytes with Trizol. RNA samples used for real-time PCR were treated with a DNA-free kit (Ambion) to remove any genomic DNA. The RNA concentration was determined from the absorbance at 260 nm. 1 μg of total RNA of each sample was reverse transcribed to cDNA in a final volume of 20 μl by using a Reverse-iT first strand kit (ABgene). 1 μl of each cDNA sample was then amplified in a PCR mixture containing 0.02 mM of each primer and 1.1⋅Reddy Mix PCR Master Mix (ABgene) in a final volume of 25 μl. Human b-actin was used as a house keeping gene. The PCR products were sequenced commercially to confirm their identity (MWG Biotech). (7)
Relative ZAG mRNA levels were quantified using real-time PCR with an ABI Prism 7700 Sequence Detector (Applied Biosystems). Mouse β-actin mRNA levels were similarly measured and served as the reference gene. Primers and Taqman probes were designed using PrimerExpress software (Applied Biosystems).

murine ZAG = assay: Western blotting of murine ZAG in serum and WAT of ob/ob mice; type: in vivo, mouse; details: ob/ob mice dosed orally with human ZAG for 8 days, anti-mouse ZAG antibody
Experimental: Tissues were thawed, washed in PBS and lysed in Phosphosafe™ Extraction reagent for 5 min at room temperature, followed by sonication at 4° C. Cytosolic protein (5-20 ug) formed by centrifugation at 18,000 g for 5 min at 4° C., was resolved on 12% SDS PAGE by electrophoresis at 180V for about 1 h. To determine ZAG in serum 30 μl samples containing 20 μg total protein were electrophoresed as above. Protein was transferred to 0.45 μm nitrocellulose membranes, which had been blocked with 5% (w/v) non-fat dried milk (Marvel) in Tris-buffered saline, pH 7.5, at 4° C. overnight. Membranes were washed for 15 min in 0.1% Tween 20 buffered saline prior to adding the primary antibodies. Both primary and secondary antibodies were used at a dilution of 1:1000. Incubation was for 1 h at room temperature, and development was by ECL. Blots were scanned by a densitometer to quantify differences.

ob/ob mice [1] = assay: Oral ZAG in drinking water to ob/ob mice: body weight, rectal temperature, urinary glucose excretion; type: in vivo, mouse
Experimental: Obese (ob/ob) mice (average weight 65 g) were bred in a colony, and were kept in an air conditioned room at 22+2° C. with ad libitum feeding of a rat and mouse breeding diet (Special Diet Services, Witham, UK) and tap water. […] Animals were grouped (n=5) to receive either ZAG/PBS (50 μg day^−1), or PBS in their drinking water, the experiment was repeated three times after a power analysis was performed. […] The ZAG was replaced every 48 h. […] The dose of ZAG was chosen to be the same as that previously administered i.v. (1), so that a direct comparison could be made, between the two routes. Body weight, food and water intake, urinary glucose excretion, and body temperature, determined by the use of a rectal thermometer (RS Components, Northants, UK), were measured daily. A glucose tolerance test was performed on day 3. Animals were fasted for 12 h, followed by oral administration of glucose (1 gkg^−1 in a volume of 100 μl by gavage). Blood samples were removed from the tail vein at 15, 30, 60 and 120 min and used for the measurement of glucose. Urinary glucose was measured by collecting 0.5 ml urine and testing glucose concentration using a Boots glucose monitor. After 8 days of treatment the animals were terminated by cervical dislocation, tissues were removed and rapidly frozen in liquid nitrogen, and maintained at −80° C. Future work would be to repeat this work in diet-induced animals as alternative to a model with gene alteration, although previous studies have shown the ob/ob mouse to be a good indicator of potential human treatments. Animal studies were conducted under Home Office Licence according to the UKCCCR Guidelines for the care and use of laboratory animals.

ob/ob mice [2] = assay: Serum metabolite and insulin levels in ob/ob mice after ZAG administration; type: in vivo, mouse; details: ob/ob mice after ZAG administration
Text: FCS (foetal calf serum) was from Biosera (Sussex, UK), while DMEM (Dulbecco's modified Eagles Medium) was from PAA (Somerset, UK) and Freestyle medium was purchased from Invitrogen (Paisley, UK). Hybond A nitrocellulose membranes and peroxidise—conjugated rabbit anti-mouse antibody were from GE Healthcare (Bucks, UK), while enhanced chemiluminescene (ECL) development kits were purchased from Thermo Scientific (Northumberland, UK). Mouse monoclonal antibodies to full-length human and mouse ZAG were from Santa Cruz Biotechnology (Santa Cruz, Calif. A mouse insulin ELISA kit was purchased from DRG (Marburg, Germany) and glucose measurements in both urine and plasma were made using a Boots (Nottingham, UK) glucose kit. L-[U-^14C] tyrosine (sp.act 16.7 GBqmmol^−1) was purchased from Perkin Elmer Ltd, (Cambridge, UK), while 2-[1-^14C] deoxy-D-glucose (sp.act 1.85 GBqmmol^−1) was from American Radiolabeled Chemicals (Cardiff, UK).
Obese (ob/ob) mice (average weight 65 g) were bred in a colony, and were kept in an air conditioned room at 22+2° C. with ad libitum feeding of a rat and mouse breeding diet (Special Diet Services, Witham, UK) and tap water. […] Animals were grouped (n=5) to receive either ZAG/PBS (50 μg day^−1), or PBS in their drinking water, the experiment was repeated three times after a power analysis was performed. […] The ZAG was replaced every 48 h. One group of mice receiving ZAG were also administered propanolol (40 mgkg^−1, p.o.) daily. The dose of ZAG was chosen to be the same as that previously administered i.v. (1), so that a direct comparison could be made, between the two routes. Body weight, food and water intake, urinary glucose excretion, and body temperature, determined by the use of a rectal thermometer (RS Components, Northants, UK), were measured daily. A glucose tolerance test was performed on day 3. Animals were fasted for 12 h, followed by oral administration of glucose (1 gkg^−1 in a volume of 100 μl by gavage). Blood samples were removed from the tail vein at 15, 30, 60 and 120 min and used for the measurement of glucose. Urinary glucose was measured by collecting 0.5 ml urine and testing glucose concentration using a Boots glucose monitor. After 8 days of treatment the animals were terminated by cervical dislocation, tissues were removed and rapidly frozen in liquid nitrogen, and maintained at −80° C. Future work would be to repeat this work in diet-induced animals as alternative to a model with gene alteration, although previous studies have shown the ob/ob mouse to be a good indicator of potential human treatments. Animal studies were conducted under Home Office Licence according to the UKCCCR Guidelines for the care and use of laboratory animals.

rats = rats treated with ZAG; cited from earlier work
[3] = 50 μg day^−1 po in drinking water

B1: zinc-α2-glycoprotein (protein, listed as Homo sapiens)
chain: QENQDGRYSLTYIYTGLSKHVEDVPAFQALGSLNDLQFFRYNSKDRKSQPMGLWRQVEGMEDWKEDSQLQKAREDMETLKDIVEYYNDSNGSHVLQGRFGCEIENNRSSGAFWKYYYDGKDYIEFNKEIPAWVPFDPAAQITKQKWEAEPVYVQRAKAYLEEECPATLRKYLKYSKNILDRQDPPSVVVTSHQAPGEKKKLKCLAYDFYPGKIDVHWTRAGQVQEPELRGDVLHNGNGTYQSWVVVAVPPQDTAPYSCHVQHSSLAQPLVVPWEAS
notes: Recombinant human ZAG, a 41 kDa protein, produced by HEK293F cells transfected with pcDNA3.1 containing human ZAG
With B1 the “ZAG mRNA in oesophageal tissue” value (ZAG mRNA) was “dramatically increased”, the “elevation of murine ZAG in serum” value (murine ZAG) was “two-fold” and the “elevation of murine ZAG in serum” value (murine ZAG; listed as human ZAG) was 2 fold. For the same molecule, the “increase in rectal temperature” value (ob/ob mice [1]; [3]) was 0.5 °C, the “reduction in urinary glucose excretion” value (ob/ob mice [1]; [3]) was 40% and the “loss of body weight / difference in body weight between ZAG and PBS groups” value (ob/ob mice [1]; 50 μg day^−1 po in drinking water, after 8 days treatment) was 5 g. The “difference in body weight between the ZAG and PBS groups” value (ob/ob mice [1]; 50 μg per day in drinking water, after 5 days of treatment) was 3.5 g, the “time of treatment after which increase in rectal temperature became significant” value (ob/ob mice [1]; oral ZAG 50 μg per day) was 4 days and the “time of treatment after which reduction in urinary glucose excretion became significant” value (ob/ob mice [1]; oral ZAG 50 μg per day) was 1 days. The serum glucose level (ob/ob mice [2]) was “decrease”, the serum glycerol level (ob/ob mice [2]) was “elevation” and the serum insulin level (ob/ob mice [2]) was “decrease”. The “serum non-esterified fatty acids” value (ob/ob mice [2]) was “decrease”, the serum triglycerides (ob/ob mice [2]) was “decrease” and the “rise in body temperature” value (rats) was 0.4 °C.

From patent publication US10172917B2, “Targeted oesophageal administration of ZN-α2-glycoproteins (ZAG), methods and formulations thereof” (ASTON UNIVERSITY, priority 2012, dated 2019)
